Measured values reported in paper PMC2647301.

Biological target: T1, Y2 I-AniI (Aspergillus nidulans (mitochondrial)?, UniProt P03880 235-488, F247Y;S345Y;F314K;L466K)
T1 sequence: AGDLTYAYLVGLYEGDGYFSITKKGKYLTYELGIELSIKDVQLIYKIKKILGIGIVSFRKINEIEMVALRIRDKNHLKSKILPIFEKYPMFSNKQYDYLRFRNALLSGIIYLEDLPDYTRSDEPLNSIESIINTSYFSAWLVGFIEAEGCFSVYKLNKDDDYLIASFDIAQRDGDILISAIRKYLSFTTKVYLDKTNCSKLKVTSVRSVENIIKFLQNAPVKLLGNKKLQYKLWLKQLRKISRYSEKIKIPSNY
Test: X-ray crystallography

B1: Y2 co-crystal I-AniI target duplex (dsDNA)
DNA 1: GCGCGCTGAGGAGGTTTCTCTGTAAAGCGCA
DNA 2: GCGCTTTACAGAGAAACCTCCTCAGCGCGCT
**Q.** Does B1 bind?
**A.** binds
